According to patent US20220305003A1, “METHODS OF TREATING CANCER WITH AN INHIBITOR OF ZNF827” (CHILDREN'S MEDICAL RESEARCH INSTITUTE, priority 2019, published 2022):

Legend:
[1] = target: T1, replication protein A (RPA), heterotrimeric complex (human, UniProt P27694 1-616; P15927 1-270; P35244 2-121); experiment: co-IP of Myc-DDK-tagged ZNF827 mutants, Western blot for RPA
T1 construct: Endogenous RPA of human cell lines, detected with an RPA2 (RPA32) antibody; also called detected through RPA32; RPA2
Protocol: (§1) Resuspended cells were lysed by incubation with rotation for 1 hour at 4° C. For Benzonase treatment to remove DNA, samples were incubated in the lysis buffer described above supplemented with 25 U Benzonase nuclease (Novagen, Merck Millipore) for 2 hours at 4° C. Lysates were subjected to centrifugation at 13,000 rpm for 40 minutes at 4° C. to remove cell debris. The supernatant was then transferred to a fresh cold low bind 1.5 mL tube for subsequent immunoprecipitation. For immunoprecipitation, protein lysates were incubated with antibody for the protein of interest (10 μg per mL lysate) or IgG control (Refer to Tables 4 and 5 for the list of antibodies used in this study), preincubated with Dynabeads Protein G, as per manufacturer's instructions (Life Technologies), with rotation overnight at 4° C. The following day, beads were washed three times in cold lysis buffer and separated on a magnetic rack. Proteins were then eluted from the beads by resuspension in 50 mM Glycine pH 2.8 and sodium dodecyl sulphate (SDS) sample buffer (0.2 M Tris-Cl, pH 6.8, 28% glycerol, 13.5% β-mercaptoethanol, 6% SDS, 6 mM EGTA, and 0.07% bromophenol blue) for 10 minutes at 70° C. and subjected to Western blot analysis, as described below, to detect various protein interactions. […]

[2] = target: T2, topoisomerase 2-binding protein 1 (TOPBP1) (human, UniProt Q92547 1-1522); experiment: co-IP with Myc antibody, Western blot for TOPBP1
T2 construct: TOPBP1 in lysates of human cells, co-immunoprecipitated with Myc antibody
Protocol: as §1

T1 sequence (P27694 whole entry, chain 1 of 3): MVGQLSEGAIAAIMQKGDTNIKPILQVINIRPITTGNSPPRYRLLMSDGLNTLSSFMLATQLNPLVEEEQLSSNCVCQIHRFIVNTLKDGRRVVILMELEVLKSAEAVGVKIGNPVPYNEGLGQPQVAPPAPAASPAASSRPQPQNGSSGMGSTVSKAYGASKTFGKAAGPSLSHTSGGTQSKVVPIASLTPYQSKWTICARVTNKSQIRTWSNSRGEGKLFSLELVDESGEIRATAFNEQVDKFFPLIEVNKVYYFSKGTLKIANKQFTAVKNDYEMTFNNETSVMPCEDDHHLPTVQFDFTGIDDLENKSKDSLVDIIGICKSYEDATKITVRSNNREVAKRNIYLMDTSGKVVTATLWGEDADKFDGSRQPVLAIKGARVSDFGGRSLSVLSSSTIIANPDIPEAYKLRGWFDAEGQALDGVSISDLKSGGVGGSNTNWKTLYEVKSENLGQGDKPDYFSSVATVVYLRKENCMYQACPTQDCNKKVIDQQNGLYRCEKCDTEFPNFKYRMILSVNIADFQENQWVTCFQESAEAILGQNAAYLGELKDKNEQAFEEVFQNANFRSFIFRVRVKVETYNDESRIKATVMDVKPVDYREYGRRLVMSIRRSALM
T1 sequence (P15927 whole entry, chain 2 of 3): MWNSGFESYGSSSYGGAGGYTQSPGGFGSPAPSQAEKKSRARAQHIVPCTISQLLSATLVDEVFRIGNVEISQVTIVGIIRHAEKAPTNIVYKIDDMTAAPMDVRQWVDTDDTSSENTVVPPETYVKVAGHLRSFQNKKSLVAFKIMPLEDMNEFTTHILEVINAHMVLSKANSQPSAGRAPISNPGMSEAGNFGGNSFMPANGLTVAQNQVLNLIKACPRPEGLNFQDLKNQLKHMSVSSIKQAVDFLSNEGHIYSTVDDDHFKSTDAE
T1 sequence (P35244 2-121 limits assumed, chain 3 of 3): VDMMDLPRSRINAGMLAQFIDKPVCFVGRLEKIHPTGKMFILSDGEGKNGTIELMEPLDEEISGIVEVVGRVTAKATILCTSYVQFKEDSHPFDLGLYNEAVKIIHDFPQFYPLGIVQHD
T2 sequence (Q92547 whole entry): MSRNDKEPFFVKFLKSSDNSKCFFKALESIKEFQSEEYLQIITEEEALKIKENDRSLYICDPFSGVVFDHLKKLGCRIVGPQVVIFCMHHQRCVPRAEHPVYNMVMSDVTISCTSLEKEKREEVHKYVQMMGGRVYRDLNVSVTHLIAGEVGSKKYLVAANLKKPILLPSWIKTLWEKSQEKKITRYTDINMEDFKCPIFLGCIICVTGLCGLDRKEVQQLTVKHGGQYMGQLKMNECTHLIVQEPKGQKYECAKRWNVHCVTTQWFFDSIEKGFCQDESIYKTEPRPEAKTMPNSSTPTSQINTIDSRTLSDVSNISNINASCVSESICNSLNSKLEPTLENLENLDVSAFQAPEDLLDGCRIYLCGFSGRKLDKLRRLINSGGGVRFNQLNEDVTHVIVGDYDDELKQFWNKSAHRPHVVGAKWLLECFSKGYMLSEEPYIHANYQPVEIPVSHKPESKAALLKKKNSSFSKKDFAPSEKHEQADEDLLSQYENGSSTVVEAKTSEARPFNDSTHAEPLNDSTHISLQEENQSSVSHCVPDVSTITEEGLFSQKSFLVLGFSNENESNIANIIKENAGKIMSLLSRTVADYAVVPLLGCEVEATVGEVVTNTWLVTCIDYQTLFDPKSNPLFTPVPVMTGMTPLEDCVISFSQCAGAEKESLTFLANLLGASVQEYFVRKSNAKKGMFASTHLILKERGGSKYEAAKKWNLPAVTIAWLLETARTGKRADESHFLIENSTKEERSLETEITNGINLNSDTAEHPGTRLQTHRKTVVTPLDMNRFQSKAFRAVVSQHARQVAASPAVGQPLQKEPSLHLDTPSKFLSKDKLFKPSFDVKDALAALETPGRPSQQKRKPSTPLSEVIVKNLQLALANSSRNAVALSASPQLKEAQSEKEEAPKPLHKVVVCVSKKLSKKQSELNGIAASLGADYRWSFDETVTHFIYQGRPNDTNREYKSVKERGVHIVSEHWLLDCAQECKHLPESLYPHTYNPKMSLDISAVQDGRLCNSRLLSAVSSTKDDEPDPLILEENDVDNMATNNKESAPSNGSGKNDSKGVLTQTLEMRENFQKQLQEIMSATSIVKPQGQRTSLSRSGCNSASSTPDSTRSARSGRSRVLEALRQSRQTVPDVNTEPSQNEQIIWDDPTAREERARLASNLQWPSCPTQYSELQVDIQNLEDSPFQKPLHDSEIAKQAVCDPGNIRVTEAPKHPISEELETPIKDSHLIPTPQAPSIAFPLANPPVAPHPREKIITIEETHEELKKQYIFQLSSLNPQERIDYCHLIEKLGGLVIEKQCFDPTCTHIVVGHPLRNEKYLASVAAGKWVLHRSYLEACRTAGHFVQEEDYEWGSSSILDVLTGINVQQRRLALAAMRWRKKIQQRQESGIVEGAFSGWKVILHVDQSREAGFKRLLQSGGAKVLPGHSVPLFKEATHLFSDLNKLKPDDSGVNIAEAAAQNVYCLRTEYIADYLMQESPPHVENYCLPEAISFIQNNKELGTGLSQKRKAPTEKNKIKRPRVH

B1: ZNF827 mutant with no zinc fingers (ZnF1-9 deleted) (other)
chain: MPRRKQEQPKRLPSHVSRQEEAEGELSEGEHWYGNSSETPSEASYGEVQENYKLSLEDRIQEQSTSPDTSLGSTTPSSHTLELVALDSEVLRDSLQCQDHLSPGVSSLCDDDPGSNKPLSSNLRRLLEAGSLKLDAAATANGRVESPVNVGSNLSFSPPSHHAQQLSVLARKLAEKQEQNDQYTPSNRFIWNQGKWLPNSTTTCSLSPDSAILKLKAAANAVLQDKSLTRTEETMRFESFSSPFSSQSASSTLAALSKKVSERSLTPGQEHPPPASSFLSLASMTSSAALLKEVAARAAGSLLAEKSSLLPEDPLPPPPSEKKPEKVTPPPPPPPPPPPPPPPQSLELLLLPVPKGRVSKPSNSASEEESGKPQHFLRTEAKVKEEIPDPDVKGSPHLSDSACLGQQREGGGTELVGTMMTSNTPERTSQGGAGVSPLLVKEEPKEDNGLPTSFTLNAADRPATRTRPLEQKLISEEDLAANDILDYKDDDDKV
notes: also called ZnF1-9d mutant
Q: Does B1 bind [1]?
A: no binding

Q: Does B1 bind [2]?
A: no binding
